Patent US20130217633A1

Columns and labels:
[1] = target: wild type Bcl-2 (overexpressed in WEHI7.2 cells) (UniProt P10415); assay: cell-based or functional assay
[2] = target: Bcl-2 of primary chronic lymphocytic leukemia (CLL) cells (human) (UniProt P10415); assay: cell-based or functional assay
Chain of Bcl-2 of primary chronic lymphocytic leukemia (CLL) cells (human) (P10415 whole entry): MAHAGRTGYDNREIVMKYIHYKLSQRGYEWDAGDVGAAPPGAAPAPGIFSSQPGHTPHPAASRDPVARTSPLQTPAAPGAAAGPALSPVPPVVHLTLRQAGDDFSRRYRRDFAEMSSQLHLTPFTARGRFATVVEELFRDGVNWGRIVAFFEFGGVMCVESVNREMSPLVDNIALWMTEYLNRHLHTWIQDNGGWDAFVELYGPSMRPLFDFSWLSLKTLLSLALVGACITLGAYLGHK

Chain of wild type Bcl-2 (overexpressed in WEHI7.2 cells) (P10415 whole entry): as above

With “TAT-IDP (IP3R-derived peptide fused with the cell-penetrating peptide of HIV TAT)” the Ca^2+ spikes per cell (single cell Ca2+ imaging, Bcl-2-positive WEHI7.2 cells) (Ca^2+ spikes per cell) [1] was 6, the percentage of Bcl-2-positive WEHI7.2 cells with a sustained pattern of Ca^2+ oscillations (three or more peaks) [1] was 36% and the percentage of Bcl-2-positive WEHI7.2 cells with one or two isolated Ca^2+ oscillations [1] was 22%. For the same substance, the percentage of primary CLL cells with Ca2+ elevation [2] was 26%.
